Test [1] deals with BSA (BOVOGEN) (UniProt P02769 25-607). The experiment in a line: ELISA, protein coated at 1μg/ml, goat anti-human IgG-HRP detection. A general note: In an ELISA, binding on a coated surface is turned into a signal by an enzyme label.
Test [2] addresses T1, A549细胞表面AXL (AXL on the surface of A549 cells) (UniProt P30530 26-894, limits assumed).
T1 construct: whole, on cells; also called 细胞表面抗原
T1 sequence (looked up): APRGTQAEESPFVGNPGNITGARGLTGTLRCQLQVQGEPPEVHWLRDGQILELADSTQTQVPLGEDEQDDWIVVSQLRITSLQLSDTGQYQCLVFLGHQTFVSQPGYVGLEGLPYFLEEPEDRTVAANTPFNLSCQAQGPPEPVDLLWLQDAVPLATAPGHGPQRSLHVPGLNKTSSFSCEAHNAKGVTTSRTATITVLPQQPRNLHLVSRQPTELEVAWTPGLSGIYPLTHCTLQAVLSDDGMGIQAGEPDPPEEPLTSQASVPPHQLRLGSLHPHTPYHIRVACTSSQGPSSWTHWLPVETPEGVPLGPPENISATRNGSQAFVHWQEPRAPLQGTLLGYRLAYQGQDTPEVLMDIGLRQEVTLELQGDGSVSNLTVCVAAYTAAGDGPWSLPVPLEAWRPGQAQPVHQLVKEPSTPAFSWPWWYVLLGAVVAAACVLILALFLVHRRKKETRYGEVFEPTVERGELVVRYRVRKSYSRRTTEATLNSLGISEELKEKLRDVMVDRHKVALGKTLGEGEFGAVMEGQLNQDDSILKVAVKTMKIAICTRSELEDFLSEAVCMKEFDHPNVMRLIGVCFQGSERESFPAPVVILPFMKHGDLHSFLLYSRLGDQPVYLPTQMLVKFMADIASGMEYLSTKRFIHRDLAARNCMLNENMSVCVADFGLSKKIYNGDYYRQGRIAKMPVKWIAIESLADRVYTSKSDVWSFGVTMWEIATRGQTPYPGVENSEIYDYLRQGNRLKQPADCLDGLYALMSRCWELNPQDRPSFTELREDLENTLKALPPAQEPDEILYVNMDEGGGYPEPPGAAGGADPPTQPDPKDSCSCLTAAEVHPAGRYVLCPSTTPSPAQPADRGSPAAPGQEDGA
In words: flow cytometry on A549 cells, 9A diluted to 20μg/ml, PE mouse anti-human IgG detection. (In general: Flow cytometry measures light scatter and fluorescence of single cells or particles in a stream.)

The target in test [3] is T2, AXL-Fc (人AXL蛋白胞外段-人IgG1Fc段融合蛋白) (human, UniProt P30530 26-451).
T2 construct: extracellular domain; Expressed in CHO-K1 cells; also called 靶抗原AXL-Fc; 抗原AXL-Fc
T2 sequence (looked up): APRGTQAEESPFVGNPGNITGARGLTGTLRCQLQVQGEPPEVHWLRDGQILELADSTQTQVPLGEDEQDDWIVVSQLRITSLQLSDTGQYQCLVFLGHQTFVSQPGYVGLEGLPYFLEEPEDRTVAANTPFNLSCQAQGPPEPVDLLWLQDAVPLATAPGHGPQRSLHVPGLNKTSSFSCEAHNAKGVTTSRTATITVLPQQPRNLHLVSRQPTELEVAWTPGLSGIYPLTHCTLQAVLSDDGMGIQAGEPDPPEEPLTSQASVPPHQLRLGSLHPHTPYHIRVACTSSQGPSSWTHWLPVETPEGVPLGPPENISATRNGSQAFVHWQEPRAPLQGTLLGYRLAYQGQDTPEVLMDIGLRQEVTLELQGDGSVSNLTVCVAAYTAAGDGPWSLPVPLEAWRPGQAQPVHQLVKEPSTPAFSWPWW
The experiment in a line: ELISA, AXL-Fc coated at 1μg/ml, antibody titrated, goat anti-human IgG (Fab')2-HRP detection.

Sequence of BSA (BOVOGEN) (P02769 25-607 limits assumed): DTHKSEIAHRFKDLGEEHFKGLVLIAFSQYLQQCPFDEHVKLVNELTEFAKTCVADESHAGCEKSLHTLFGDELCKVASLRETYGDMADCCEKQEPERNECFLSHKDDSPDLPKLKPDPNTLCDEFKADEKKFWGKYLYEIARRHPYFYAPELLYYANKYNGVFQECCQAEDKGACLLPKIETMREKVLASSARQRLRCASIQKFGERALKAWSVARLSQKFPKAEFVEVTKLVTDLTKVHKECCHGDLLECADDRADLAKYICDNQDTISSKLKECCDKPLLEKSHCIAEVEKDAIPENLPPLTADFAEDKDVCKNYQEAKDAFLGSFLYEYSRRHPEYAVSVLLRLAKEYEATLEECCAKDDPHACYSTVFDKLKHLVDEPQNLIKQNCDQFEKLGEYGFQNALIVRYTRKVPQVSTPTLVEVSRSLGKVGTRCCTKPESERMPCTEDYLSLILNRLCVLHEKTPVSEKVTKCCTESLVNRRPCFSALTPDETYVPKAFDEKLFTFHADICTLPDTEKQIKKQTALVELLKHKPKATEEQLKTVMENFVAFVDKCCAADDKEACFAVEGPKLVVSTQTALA

B1: 9A抗体 (full antibody 9A, anti-AXL monoclonal antibody) (antibody, human IgG1, kappa, V domains shown)
VH: QVQLVQSGAEVKKPGSSVKVSCKASGGTFSSYAISWVRQAPGQGLEWMGGIIPIFGTANYAQKFQGRATITADESTSTAYMELSSLRSEDTAVYYCARAYYDFWSGYEPWGQGTLVTVSS
VL: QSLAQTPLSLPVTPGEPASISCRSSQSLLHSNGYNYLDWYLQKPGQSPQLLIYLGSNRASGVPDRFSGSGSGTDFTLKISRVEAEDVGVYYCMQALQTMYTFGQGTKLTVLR
notes: also called 单克隆抗体9A; 全抗体
For the molecule B1, the figures for the binding result in test [1], in test [2] and in test [3] were “no binding”, “binds” and “binds”, respectively.

Source of the values: patent publication CN107987163A (HANGZHOU SHANGJIAN BIOTECHNOLOGY CO LTD, dated 2018).
